Data as given in article PMC8055535.

Molecular target: light-dependent protochlorophyllide oxidoreductase (LPOR), Zea mays (Zea mays (endogenous in maize etioplasts))
Assay: cryo-EM structure; electron cryo-tomography and subtomogram averaging of membrane tubes from ruptured maize etioplasts, native membranes; low-salt pH 8.0 buffer with 150 mM trehalose in place of sorbitol; tube averages at 18.2 and 18.1 Å, sub-boxes of dimers at 9 Å

light-dependent protochlorophyllide oxidoreductase (LPOR), Zea mays (enzyme)
stoichiometry N: 2
